In article PMC10786919, “Design-rules for stapled peptides with in vivo activity and their application to Mdm2/X antagonists” (Nature Communications, 2024) one finds Kd and ratio to parent data, which are given here for 77 substances.

In the first test the target is human Mdm2 (1-125) (human). Kind of test: fluorescence polarisation.
Chain of human Mdm2 (1-125) (human) (Q00987 1-125): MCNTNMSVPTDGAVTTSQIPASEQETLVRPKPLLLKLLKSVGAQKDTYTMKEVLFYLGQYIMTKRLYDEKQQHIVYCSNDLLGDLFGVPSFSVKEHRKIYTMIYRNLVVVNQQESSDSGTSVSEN
Settings: not given
A general note: Polarisation of emitted light reports the rotation of a fluorescent probe.
azide-ATSP-7041 (MP-081) (peptide) showed a Kd of 5 nM.

The target in a further test is human Mdm2 1-125 (human). Kind of test: fluorescence polarisation.
Chain of human Mdm2 1-125 (human) (Q00987 1-125): as above
Settings: not given
In the case of AZIDE-ATSP-7041 (A8 TO D-ALA) (peptide), the Kd was found to be 65.4 nM. The same measure, in the same setting: then AZIDE-ATSP-7041 (S12A) (peptide), with 36.2 nM; and “AZIDE-ATSP-7041 (W7 TO 6-FLURO-1-TRP) (peptide)”, with 1 nM.

A further test concerns the target human Mdm2 (1-125). The test can be described thus: fluorescence anisotropy competition assay (FAM-12/1 tracer). As to conditions: tested in duplicate; parent MP-081 KD = 5 nM.
Consider azide-ATSP-7041 (MP-081) A8E, for which the ratio to parent was < 2 x (within).

With azide-ATSP-7041 (MP-081) A8W, the ratio to parent is < 2 x (within).

As for “azide-ATSP-7041 (MP-081) A13a (a = D-alanine)”, the ratio to parent is < 2 x (within).

As for azide-ATSP-7041 (MP-081) A14E, the ratio to parent is more than 2 x stronger. The same measure, in the same setting: then “azide-ATSP-7041 (MP-081) A14hR (hR = homo-arginine)”, with < 2 x (within); and azide-ATSP-7041 (MP-081) L1E, with < 2 x (within); and azide-ATSP-7041 (MP-081) L1H, with < 2 x (within).

azide-ATSP-7041 (MP-081) Q9H: the ratio to parent is < 2 x (within). Same read-out and setting: then azide-ATSP-7041 (MP-081) Q9K, with < 2 x (within); and azide-ATSP-7041 (MP-081) S12E, with more than 2 x stronger; and azide-ATSP-7041 (MP-081) S12H, with < 2 x (within). The same measure, in the same setting: then “azide-ATSP-7041 (MP-081) S12a (a = D-alanine)”, with < 2 x (within).

Regarding “azide-ATSP-7041 (MP-081) S12hR (hR = homo-arginine)”, the ratio to parent was < 2 x (within). With azide-ATSP-7041 (MP-081) T2K, the ratio to parent was < 2 x (within). Still for that read-out and setting: the figure for “azide-ATSP-7041 (MP-081) T2hR (hR = homo-arginine)” is < 2 x (within); for “azide-ATSP-7041 (MP-081) W7(6F-1-W) (6F-1-W = 6-Fluoro-1-Trp)” it is more than 2 x stronger. On the same count and under the same terms, then “azide-ATSP-7041 (MP-081) W7(DC-F) (DC-F = 3,4-Dichloro-Phe)”, with < 2 x (within). In the case of “azide-ATSP-7041 (MP-081) W7(TFm-F) (TFm-F = trifluoromethyl-Phe)”, the ratio to parent is more than 2 x stronger.

The next test addresses human Mdm2 1-125 (human). The test can be described thus: fluorescence polarisation; competitive fluorescence anisotropy: unlabelled peptide titrated against 250 nM Mdm2 (1-125) with 50 nM FAM-labelled 12/1 peptide (FAM-…-NH2); PBS pH 7.4, 0.001% Tween-20; apparent Kd, geometric means.
Settings: not given
Consider AZIDE-ATSP-7041 (A8W) (peptide), for which the Kd amounted to 8.5 nM. The same measure, in the same setting: the figure for AZIDE-ATSP-7041 (A14E) (peptide) is 0.7 nM.

For the substance AZIDE-ATSP-7041 (CBA10 TO A) (peptide), the Kd was 115 nM. On the same count and under the same terms, the figure for AZIDE-ATSP-7041 (E5 TO D-ALA) (peptide) is 11.5 nM; for AZIDE-ATSP-7041 (E5A) (peptide) it is 47.7 nM.

For AZIDE-ATSP-7041 (E5G) (peptide), the Kd came out at 68.2 nM. The same measure, in the same setting: the figure for AZIDE-ATSP-7041 (E5P) (peptide) is 7840 nM; for AZIDE-ATSP-7041 (E5W) (peptide) it is 98.5 nM. Still for that read-out and setting: the figure for AZIDE-ATSP-7041 (L1 TO D-ALA) (peptide) is 8 nM; for “AZIDE-ATSP-7041 (L1A, E5A, Q9A, S12A) (peptide)” it is 53.9 nM. For “AZIDE-ATSP-7041 (L1D, E5D, A8D) (peptide)”, the Kd came out at 5.2 nM.

As for AZIDE-ATSP-7041 (L1G) (peptide), the Kd amounted to 9.5 nM.

In the case of AZIDE-ATSP-7041 (L1P) (peptide), the Kd is 22.6 nM. In the case of “AZIDE-ATSP-7041 (L1R, A8R, A13R) (peptide)”, the Kd stood at 9.1 nM. As to “AZIDE-ATSP-7041 (L1R, Q9R, S12K) (peptide)”, the Kd amounted to 64.6 nM. On to “AZIDE-ATSP-7041 (L1R, Y6F, L9R) (peptide)”, for which the Kd worked out at 117 nM. The same measure, in the same setting: the figure for AZIDE-ATSP-7041 (L1W) (peptide) is 16.5 nM; for “AZIDE-ATSP-7041 (L1Y, E5Y, A8Y) (peptide)” it is 371 nM; for AZIDE-ATSP-7041 (Q9 TO D-ALA) (peptide) it is 18.5 nM.

For the substance AZIDE-ATSP-7041 (Q9A) (peptide), the Kd stood at 54.3 nM. On the same count and under the same terms, the figure for AZIDE-ATSP-7041 (Q9G) (peptide) is 19.1 nM.

As to AZIDE-ATSP-7041 (Q9P) (peptide), the Kd is 45.8 nM. The same measure, in the same setting: then AZIDE-ATSP-7041 (Q9W) (peptide), with 86 nM; and AZIDE-ATSP-7041 (S12E) (peptide), with 0.73 nM. Still for that read-out and setting: then AZIDE-ATSP-7041 (S12G) (peptide), with 12.4 nM; and AZIDE-ATSP-7041 (S12P) (peptide), with 50.1 nM. AZIDE-ATSP-7041 (S12W) (peptide): the Kd stood at 48 nM. Still for that read-out and setting: the figure for AZIDE-ATSP-7041 (T2 TO D-ALA) (peptide) is 70.5 nM; for AZIDE-ATSP-7041 (T2V) (peptide) it is 71.5 nM; for AZIDE-ATSP-7041 (T2W) (peptide) it is 204 nM. Still for that read-out and setting: then “AZIDE-ATSP-7041 (W7 TO 3,4-DICHLORO-PHE) (peptide)”, with 5.3 nM. For the substance “AZIDE-ATSP-7041 (W7 TO TRIFLUOROMETHYL-PHE) (peptide)”, the Kd was found to be 1 nM. For AZIDE-ATSP-7041 (Y6F) (peptide), the Kd stood at 3.3 nM.

In the case of AZIDE-ATSP-7041(A13E) (peptide), the Kd was 14.2 nM. Take AZIDE-ATSP-7041(W7A) (peptide): the Kd was determined as 4600 nM.

In the case of NH2-EEE-AZIDE-SGS-PM2-EEE (peptide), the Kd amounted to 2.4 nM.

Another test addresses human Mdm2 1-125 (human). Described as above.
Settings: not given
The source holds these as a separate data set.
For the substance AZIDE-ATSP-7041 (E5A) (peptide), the Kd is 48.7 nM. In the case of AZIDE-ATSP-7041 (E5A,Q9A) (peptide), the Kd was found to be 38 nM. As to AZIDE-ATSP-7041 (E5A,S12A) (peptide), the Kd turned out to be 30.9 nM. Still for that read-out and setting: then AZIDE-ATSP-7041 (E5L, A8L) (peptide), with 36.2 nM. For “AZIDE-ATSP-7041 (L1A, E5A, Q9A) (peptide)”, the Kd came to 96 nM.

As to AZIDE-ATSP-7041 (L1A,E5A) (peptide), the Kd is 41.7 nM. For the substance AZIDE-ATSP-7041 (L1A,Q9A) (peptide), the Kd stood at 21.1 nM. Regarding AZIDE-ATSP-7041 (L1A,S12A) (peptide), the Kd turned out to be 16.1 nM.

Take AZIDE-ATSP-7041 (L1A,T2A) (peptide): the Kd came to 26.5 nM. On the same count and under the same terms, then AZIDE-ATSP-7041 (Q9A,S12A) (peptide), with 45.3 nM. As for AZIDE-ATSP-7041 (T2A,E5A) (peptide), the Kd amounted to 272 nM. On the same count and under the same terms, then AZIDE-ATSP-7041 (T2A,Q9A) (peptide), with 79.5 nM.

In the case of AZIDE-ATSP-7041 (T2A,S12A) (peptide), the Kd came out at 37.1 nM. Consider “AZIDE-KK-ATSP-7041 (L1A,T2A,E5A,Q9A,S12A) (peptide)”, for which the Kd was found to be 156 nM.

In the next test the target is human Mdm2 (1-125) (human). The test can be described thus: fluorescence polarisation; competitive fluorescence anisotropy: 250 nM Mdm2 (1-125) with 50 nM FAM-labeled 12/1 peptide, competing peptide titrated; apparent Kd from the fit with Kd1 = […]; PBS pH 7.4, 0.001% Tween-20; geometric means.
Settings: not given
Turning to “ALRN-6924 (Sulanemadlin, MP-4897) (peptide)”, the Kd was 2.5 nM.

As to azide-ATSP-7041 (E5P) (peptide), the Kd came to 7800 nM. Same read-out and setting: then “azide-ATSP-7041 (L1D, E5D, A8D) (MP-495) (peptide)”, with 5 nM; and “azide-ATSP-7041 (L1N, E5N, A8N, S12N, A13N, A14N) (MP-359) (peptide)”, with 15 nM. In the case of “azide-ATSP-7041 with Cba10 substituted by Ala (peptide)”, the Kd was 115 nM. For “azide-ATSP-7041 with Cba10 substituted by Leu (peptide)”, the Kd was 56 nM.

A further test has as its target human Mdm2 (1-125) (human). Described as above.
Settings: not given
The source holds these as a separate data set.
Consider “ALRN-6924 (Sulanemadlin, MP-4897) (peptide)”, for which the Kd was 2.46 nM.
